Test results: PMC3392929 (The Journal of Cell Biology, 2012)

Experiments:
[1] = biological target: Purified β-actin (Cytoskeleton) (UniProt P60709 1-375); test: SPR
[2] = biological target: Purified β-actin (Cytoskeleton) (UniProt P60709 1-375); test: SPR; remark: listed apart in the source

B1: GST-tagged full-length Myo1c (natural protein)
chain: MALQVELIPTGEIIRVVHPHRPCKLALGSDGVRVTMESALTARDRVGVQDFVLLENFTSEAAFIENLRRRFRENLIYTYIGPVLVSVNPYRDLQIYSRQHMERYRGVSFYEVPPHLFAVADTVYRALRTERRDQAVMISGESGAGKTEATKRLLQFYAETCPAPERGGAVRDRLLQSNPVLEAFGNAKTLRNDNSSRFGKYMDVQFDFKGAPVGGHILSYLLEKSRVVHQNHGERNFHIFYQLLEGGEEETLRRLGLERNPQSYLYLVKGQCAKVSSINDKSDWKVVRKALTVIDFTEDEVEDLLSIVASVLHLGNTHFAADEESNAQVTTENQLKYLTRLLGVEGSTLREALTHRKIIAKGEELLSPLNLEQAAYARDALAKAVYSRTFTWLVAKINRSLASKDAESPSWRSTTVLGLLDIYGFEVFQHNSFEQFCINYCNEKLQQLFIELTLKSEQEEYEAEGIAWEPVQYFNNKIICDLVEEKFKGIISILDEECLRPGEATDLTFLEKLEDTIKQHPHFLTHKLADQRTRKSLDRGEFRLLHYAGEVTYNVTGFLDKNNDLLFRNLKETMCSSENPILGQCFDRSELSDKKRPETVATQFKMSLLELVEILKSKEPAYVRCIKPNDSKQPGRFDEVLIRHQVKYLGLMENLRVRRAGFAYRRKYEAFLQRYKSLCPETWPTWTGRPQDGVTVLVRHLGYKPEEYKMGRTKIFIRFPKTLFATEDALEIRRQSLATKIQATWRGFHCRQKFLRVKRSAICIQSWWRGTLGRRKAAKRKWAAQTIRRLIQGFILRHAPRCPENAFFVDHVRTSFLLNLRRQLPRNILDTSWPTPPPALREASELLRELCRKNMVWKYCRSISPEWKQQLQQKAVASEIFKGKKDNYPQSVPRLFISTRLGADEINPRVLQALGSEPIQYAVPVVKYDRKGYKPRSRQLLLTPNAVVIVEDAKVKQRIEYTNLTGISVSSLSDSLFVLHVQREDNKQKGDVVLQSDHVIETLTKTALSADRVNNININQGSITFAGGPGRDGIIDFTPGSELLITKAKNGHLAVVAPRLNSR
[1]
  Kd: ≤ 2 µM

B2: GST-tagged Myo1c tail domain (domain or fragment)
chain: KDNYPQSVPRLFISTRLGADEINPRVLQALGSEPIQYAVPVVKYDRKGYKPRSRQLLLTPNAVVIVEDAKVKQRIEYTNLTGISVSSLSDSLFVLHVQREDNKQKGDVVLQSDHVIETLTKTALSADRVNNININQGSITFAGGPGRDGIIDFTPGSELLITKAKNGHLAVVAPRLNSR
[2]
  Kd: ≤ 2 µM
